This series can be described thus: soluble on expression in E. coli; label from the status in PepcDB or PDB records.
Regarding “MSLNINKVFYHSSTNMNEVPDNSVDLIITSPPYFNIKDYAKNGTQDLQHSAQHVEDLGALEKYEDYLLGLLKVWLECYRALKPNGKLCINVPLMPMLKKVLNTHYNRHIFDLHADIQHSILHDLNNMLKNKPKMFLLDVYIWKRANPTKRLMFGSYPYPRNFYAQNTIEFIGVFVKDGKPKQPTEEQKEQSQLTQEEWVEFTKQIWEIPIPNKNDIAFGKHAALMPAELARRLIRLYSCVGDVVLDPFSGSGTTLREAKLLKRNFIGYELYENYKPLIEQKLGNLFDFEEGHHHHHH”, the “soluble on expression in E. coli” value is listed as “soluble”.
In the case of “MSLNIQQQVNEMFSGMINVTSPGAYKTATRGVITGGSVVLRNRISTANLISITPPSAKGGCGGINLYSGSFSFINGEEFVALMRNVASNAAGIVSGFAFELALDAMDAQTGGVIRNLANKIQALNQMFSNSCQLASGLVTNAKKAYEESTDFKSAMTAFGSNVSSDFFTAKSTKEDSPANRIAASGKAVQCENTGNVLWCAMMKSGLQSQILFGSDENAEFIMSMVGSYNVSLTNDASGGKNFAAHPMPKLITGEGLKILVEGSTNLDVKVYQCDQDDPDCSEPNIRTLTSFKGLETRILEDLQNNGILERFANGTATAADGNRIAYLASSRVGVNLMKITQKAGAQSGYDYLNQFAKKIAADASMSLIYQLLGHTEKGLTSLNMADAGKVIEDLRATKGELMDEYRSYIEDAMQGKDADGQAEKMLQMAPVFDSGTLPQGTINDNAGAEGHHHHHH”, the “soluble on expression in E. coli” value is on record as “not soluble”.
Regarding “MSLNKLSNVTLSAEQEKLRERVLSFMRSNLSQYKSDWKHPAMFVIQGDAGTGKSVILNSLFNEIQKLSQFSPSSEDILHGTHNYLVVNHPEMLKLYIRISDSFKYISKSSLERPTSLINNLQKRKVMADVVIVDEAHLLATSKDAFKRFYGENHLKDLMSLCKVLVLVYDDKQALRMGSYWDEGSNNGATLKDFYNEIPPKSRDWYTLKQQFRVAAPQNVLNWIDQISVAGKEGHHHHHH”, the “soluble on expression in E. coli” value is “not soluble”.
With “MSLNKLVDAHCHVITDPDNTFCGDDGGSQGTLRCVMSSNPYDWNNLKKLAGRSTSKNDICVGFGVHPWYSHLFYVGSRRDKVSHYQDVLEYKNEEQFDSLVQVLPEPLDLEEYIKREFNDTLVSVIGEIGLDKLFRLPANGFYMQNEKARLTTVKVKLSHQETVFRRFCRLARHTSKPISIHDVKCHGKLNDICNEELLTYHSVKICLHSYTGSKETLLGQWLKKFPPDRIFVSLSKWINFKDPEEGDALVRSLPSTCILTETDYPIDNPDPSYQKALTEQLQYLNAQIARAWDETLDASQAALRVYENFQKFIKEGHHHHHH”, the “soluble on expression in E. coli” value is recorded as “not soluble”.
Take “MSLNKQDGENTLQHEKSSSFGYWCSPSPEQLERLSLKQLAAVSNFVIGRRGYGCITFQHDVDLTAFTKSFREELFGKIVIFRSSKTVEVYPDEATKPMIGHGLNVPAIITLENVYPVDKKTKKPMKDTTKFAEFQVFDRKLRSMREMNYISYNPFGGTWTFKVNHFEGHHHHHH”: the “soluble on expression in E. coli” value is listed as “soluble”.
As for “MSLNKTKDIAASPLCFVSPYPQLAKAAEALVAQLDYAVTIHQTTLNRILDELPLLESRGHQVLISRGGCAEILKKHSKLPVVEIKMSGYDILDALIPFKGQKGTVGIVGFSSVIKGCARVAEQLNINYKIFTLQGNDKETISCLKRQLASTPLDCIVGDTVCQDYFSPLGSQFRLLDSSPASITEALEEARSLYLAFRSQLLERHHLQLILDQFDKAVITLDDTGALLHYNKYASQLFKINASGEIYDASFLKQVLHQERHTLREGKTVSAKVVDTPQGAMVVNLYPVFAARQLSRVVLTMQTVSSLQGAEHHVRRQELSRRGLSAREGHHHHHH”, the entry is “soluble”; as for “MSLNKVLVVEDEQLLAQNLQDYLSAQGLEVRIAHDGAEGIGLAETFAPDVLVFDYRLPDMEGFEVLDAVRQNRTCHFVLITGHPTAEVCERARQLGVSHILFKPFPLAELARAVCDLLGIQREAKPGASPSEGFVERRQSRTESFPLQLYDGSWVLADRRRNRSEAMAPDDDQMLTGEEGHHHHHH”, “not soluble”.
As for “MSLNMTSKETKEGLAGYFSSDAAKMQSNNVSPVANNPFVQSTDKLDTRDFKITEVERSHYAIAQKLRQMLMADATPQSASGISADDVGVQLRVNSDIMYAPGSAELAPEGAKVLDDVIRILKEYNLYLVVRGHTDSGEPRNSIYPSNWELSGARAAAAVRYIITHGEIKPTRLRSIAYADTRPLEPNTSPDSRAKNRRVEFYFHRPEVMSYSVVYEGHHHHHH”, the “soluble on expression in E. coli” value was “soluble”.
Regarding “MSLNRIFDAHCHIIDPQFPLIANNGYLPDPFGVGDYLATVQPLGVQGGAVVSGSFQGFDQGYLLQALRLLGPGFVGVTQLPASVTDTELDTLNAAGVRALRFNLKRGGSEQLDQLEALAVRVRERAGWHSELYIDSRELAEIETRLLKLPAISIDHLGLSAEGLPVVLRLAERGVRVKACGFGRVDFPVREALRDIHAANPNALMFGTDLPSTRAPRPFQPDDIELLIDALGEGGARQALWDNAAEFYREGHHHHHH”, the “soluble on expression in E. coli” value is reported as “not soluble”.
As for “MSLNRVFIVDDDTLTCNLLKTIVEPIFGNVEAFQHPRAFLTLSLNKQDIIILDLMMPDMDGIEVIRHLAEHKSPASLILISGYDSGVLHSAETLALSCGLNVINTFTKPINTEVLTCFLTSLSNRQAQRELVSFNNDKANQGKFDFIPTEQDLREAIDKKQLILYYQPQINMKTECLHGAEVLVRWLHPEFGLIYPDKFIALAEQTGLIEQLSEEVIHLAIKQSVHWQKLNRATRLSINISAQNITSLKLPEQLRMLVKKYEIDPSMIVLELTESALMDSEVTSLDIFTRFRLKGFQLSIDDFGTGYSSLSQLHKIPFTELKIDQSFVTNMKQEKESMAIVETCIMLAHKLNMEAVAEGIEDKETWDLLSAEGCDIAQGYYIARPMPADQFDKWQFNEGHHHHHH”, the entry is “soluble”; as for “MSLNTIYEPSSICMIRTPLLSVEFFNLFLNTEQIKYSDLQLNAQMKESILTTTFNLYCTLQEINFDGDNKKVRDAKESLLKYLIRMSTRPTPFGLLSGINLGHFVNEPTRLKVGNSIQKYVKVDGEWLYKLVSYIESIDEYYQNLKVIWNSKAHIINDRIYLNEQSAIYLNNNKDTSFSIKNSELLVFIKTTVTNNNITFSNLAEKINQEFEINDITKVKVYIHNLVSKEIIYSTIRPPLSYSDNLNYILNKLSLHNDDFVKKIREIQKLILAYEKTEIGFGEELYKDIIHHMKALFKCKNYLQIDTKIDMINNYLHQDIATNISEAAYLLWLLSRNNIGFTDLKVLHNRFIEKYGFEQLVNIKDLISDITGFGTTIFQEEETDGNNIVMLKQKFLHALRNNDEIVINEKDVESLINDNEINHYHAPMSADVYAELYLGRFYNQYNELIVISPLTASFNAGATFGRFHHLIDTETLAKLEHEKGHYYQKMICDDNVEMISINNIPKYPRNHNVLTNHDSYEYSLNLGSSNSYSKYELTLDDIYVGATFNKLYLYSSQLNKRVIFESNNMYNFLKECNLYRLLREISMESVKCIEPMNDVSIDSFSYSPRIRYKNVILKPAYWKINEMVLPLPKNEEWDQQFLKYQEQFNIPNIVNLVYGDNKLLLNLSLANHRYLLMKEYKKHKRVRLVESFLPQSKNDHVYEIVTPIYKKSSYRGEGHHHHHH”, “not soluble”; as for “MSLNTSRKERSVSTFSIVGYDPKTDELGIAVQSKFLGVGAIVPWAKAGVGAIATQSYANTSYGSKGLDLLARGKTAEETLALLINEDADRHLRQVGIVDAKGRAASFTGQGCYEWAGSMTGHCFAVQGNLLVSEETVKTMAQKFVQATGSLAERLLLTLEAGQCAGGDRRGKQSAALLIVKEKGGYGGFNDRLIDLRVDDHPEPIQELKRIFELQQLYFAKPKEQDQLPLTDDRISIIKSSLHSLGYLSLTQHWRDALQQFIATENLEGRMGTGTQTIDRVVFSFLQKKAKEEGHHHHHH”, “soluble”.
As for “MSLNVVKFGGSSLASAPQLQKVLQIVKEEPRRTFVVVSAPGKRTPQDIKVTDLLIQYYQRYLNNEEIESTISAIIRRYEDLFDELHLDKAVLADIAISIRQLATLPKENNAFLFDYFLASGEDNNAKVVASFFKQNGLDARYISPKELGLLVTPEPGNARILPKALEKISVYRETQQILVIPGFFGYTEAGEICTFSRGGSDITGSIVAAGVQADLYENFTDVDGIYVAHPGIIEQPQTIQELTYREMRELAYAGFAVLHDEALMPAYRANIPVVIKNTNNPHHPGTLITTSRKVKHAPVVGIASDQGFASIYISKYLMNRELGFGRRLLEVLEKLALSYEHMPSGIDDITIVLREDQLTTEIENRLMAQLQEVLAPDELRITHHLSMIMIVGEGMRQRIGVTAESTMALAKEKINLEMINQGSSEVSIMFGIKKEQEEKAIKALYRTFFHDEGHHHHHH”, the “soluble on expression in E. coli” value is recorded as “soluble”.
With “MSLNWMELSIVVNHEVEYDVTEILESYGSNGVVIEDSNILEEQPVDKFGEIYDLNPEDYPEKGVRLKAYFNEFTYNENLKSNINYEILSLQQIDKTIYDYQEKLIAEVDWENEWKNYFHPFRASKQFTIVPSWESYVKENDNELCIELDPGMAFGTGDHPTTSMCLKAIETFVKPTDSVIDVGTGSGILSIASHLLGVQRIKALDIDEMAVNVAKENFKKNHCDDAIEAVPGNLLKNENEKFNIVIANILAHIIEEMIEDTYNTLIEDGYFITSGIIEEKYQDIESQMKRIGFKIISVEHDNGWVCIVGQKVSEGHHHHHH”, the “soluble on expression in E. coli” value is “soluble”.
Take “MSLNYQMITTDDALASLCEAVRAFPAIALDTEFVRTRTYYPQLGLIQLFDGEHLALIDPLGITDWSPLKAILRDPSITKFLHAGSEDLEVFLNVFGELPQPLIDTQILAAFCGRPMSWGFASMVEEYSGVTLGKSESRTDWLARPLTERQCEYAAADVWYLLPITAKLMVETEASGWLPAALDECRLMQMRRQEVVAPEDAWRDITNAWQLRTRQLACLQLLADWRLRKARERDLAVNFVVREEHLWSVARYMPGSLGELDSLGLSGSEIRFHGKTLLALVEKAQTLPEDALPQPMLNLMDMPGYRKAFKAIKSLITDVSETHKISAELLASRRQINQLLNWHWKLKPQNNLPELISGWRGELMAEALHNLLQEYPQEGGSHHHHHH”: the “soluble on expression in E. coli” value is given as “soluble”.
As for “MSLNYSNDIFEEDTFNPGNDNLFLKTASVGTGEYFILPRLCAHLAKNAPKFVLKISSLSEYLSLEYLLMSELDFAIGPGFVETGNNIIRELLFEEEAVCIMHKSHPLANQELTQDMYLQAEHVDIQFSYMGNENILYKALQGYHQRNIKVIVPNIISALEVVYHTNFITTVPRTLAVTFKDRYQIELHPFPFPKKTFLVNFYYHKRLSNHKPLQWVLDVIKKYCCVNHEGHHHHHH”, the entry is “not soluble”; as for “MSLPCNKHPFYQQLEQQLDTTRTEGLYKNERVITSAQQANIAVADGSRVINFCANNYLGLANHPKLIAAAKAGMDSHGFGMASVRFICGTQDIHKELEHKLASFLGMEDAILYSSCFDANGGLFETLLGPEDAIISDALNHASIIDGVRLCKAKRYRYANNDMTELEAQLKQAKAEGARHIMIATDGVFSMDGVIANLKRVCDLADEYQALVMVDDSHAVGVIGANGRGTHEYCEVMDRVDIITGTLGKALGGASGGYTAGRKELVEWLRQRSRPYLFSNSLAPAIVAASIEVLSLLEEGGALRDRLWANARLFREKMSAAGFTLAGADHAIIPVMLGEAKLAQDFANALLKEGIYVTGFFFPVVPKGQARIRTQMSAGHTTEQVERAIEAFVRIGKQLNVIA”, “not soluble”.

(Values after the DeepSol protein solubility set.)
